This is an account of results in US20250043290A1, “RNA SEQUENCES THAT INDUCE FLUORESCENCE OF SMALL MOLECULE FLUOROPHORES, MOLECULAR COMPLEXES, SENSORS, AND METHODS OF USE THEREOF” (CORNELL UNIVERSITY, priority 2021, published 2025).

A value given as a limit tells only on which side of the number the result lay.

A short description of data set [1]: Fluorescence activation of DFHO by aptamers in vitro. It counts as biochemical. From the text: FIG. 2A is a schematic showing the secondary structure of Squash as predicted by mFOLD (Squash: 5′-GGCUACAAGGUGAGCCCAAUAAUACGGUUUGGGUUAGGAUAGGAAGUAGAGCCGUAAACUCUCUAAGCGGUAGUC-3′ (SEQ ID NO:1)). Squash retained the main structural elements of add A-riboswitch aptamer including a 3-way junction and predicted kissing loop interactions (residues at positions 30, 31, 56, and 57, solid gray line). An additional base pair in the kissing loop between loop L2 and L3 (residues at positions 29 and 58, dotted gray line) improved fluorescence activation. […] Shown are the excitation (Ex) and emission (Em) spectra of Squash bound to DFHBI-1T and DFHO (structures shown in inset). Spectra were measured using 20 μM RNA and 2 μM of the indicated fluorogenic dye. […] Fluorescence activation was measured by incubating 200 nM dye and 10 μM RNA. By using a large excess of RNA compared to the fluorophore, it was ensured that the fluorescence observed is from 200 nM RNA-fluorophore complex. Data represent mean values±s.d. for n=3 independent experiments. The values inside the bars indicate fold activation. AU, arbitrary units. FIG. 2D is a graph showing the dissociation constant (Kd) between Squash and DFHO as measured by titration of 50 nM Squash with increasing concentration of DFHO, and fitted using a one-site saturation model. […] FIG. 2E is a bar graph showing the results of an experiment in which Squash-DFHO fluorescence was measured in buffers containing exclusively the indicated cations. […] Similar to the parental add A-riboswitch aptamer (see Lemay et al., “Folding of the Adenine Riboswitch,” Chem. Biol. 13:857-868 (2006), which is hereby incorporated by reference in its entirety), Squash-DFHO has a low magnesium requirement for fluorescence activation. […]
FIG. 6A is a bar graph showing fluorescence activation of DFHO by Squash and its precursors. Fluorescence was measured with 200 nM dye and 10 μM RNA (ex: 495 nm, em: 562 nm, except for Corn; ex: 505 nm, em: 545 nm). […] FIG. 6B is a bar graph showing fluorescence of initial hits after Round 7 of SELEX. In vitro transcribed RNAs from each hit (1 μM final) were mixed with DFHBI-1T (10 μM final) and the fluorescence was measured (ex: 452 nm, em: 503 nm, except for Broccoli; ex: 472 nm, em: 507 nm). […] FIGS. 6C-6D are bar graphs showing fluorescence measurements of the hits with DFHBI-1T after first (FIG. 6C) and second (FIG. 6D) round of directed evolution, measured as in FIG. 6B. […] FIG. 6E is a bar graph showing fluorescence measurements of hits using DFHO after the second round of directed evolution measured as in FIG. 6A. The fluorescence of the hits were normalized against Corn. […] FIG. 6F is a graph showing normalized fluorescence. […] Fluorescence was measured as in FIG. 6A. […]

Data set [2] is described as follows: On and off rates of aptamer binding to DFHO. The following applies: 50 nM RNA. Here is the method:
FIGS. 7A-7H provide photophysical and biophysical characterization of Squash. […] Excess RNA was used to ensure binding of nearly all fluorophore. […] Data represent mean values±s.d. for n=3 independent experiments. […] The fluorescence signal trace was fitted with a monoexponential curve to extract kobs. kobs was plotted as a function of total RNA (50 nM RNA) and fluorophore concentration. kon and koff were extracted as the slope and intercept, respectively. Squash koff (0.014±0.008 s^−1) is very similar to that of Corn (0.018±0.002 s^−1). kon for Squash-DFHO (162300±8100 M^−1 s^−1) is seven-times higher than Corn-DFHO (23000±3000 M^−1 s^−1) which could be due to the high folding of Squash. […]
To measure on and off rates of Squash binding to DFHO, the same protocol that was reported previously to measure kinetic rates for Spinach-DFHBI was used (Han et al., “Understanding the Photophysics of the Spinach-DFHBI RNA Aptamer-Fluorogen Complex to Improve Live-Cell RNA Imaging,” J. Am. Chem. Soc. 135:19033-19038 (2013), which is hereby incorporated by reference in its entirety). Briefly, 50 nM RNA was mixed with different amounts of DFHO and binding kinetics was monitored on the fluorimeter as fluorescence signal increases. Each fluorescence signal trace was fitted with a monoexponential curve and the observed rate constant (kobs) was extracted. […]

B1: Squash: fluorogenic RNA aptamer evolved from the add A-riboswitch aptamer, binds DFHBI-1T and DFHO; SEQ ID NO: 12 (SEQ ID NO: 1) (nucleic acid)
chain: AGGUGAGCCCAAUAAUACGGUUUGGGUUAGGAUAGGAAGUAGAGCCGUAAACUCUCUAAGCG
modifications: RNA, backbone not given here
By koff is commonly meant the first-order rate constant of dissociation. As for B1, the “Fold activation of DFHO fluorescence” value in data set [1] is given as 550 fold. For the same molecule, the “Activation of DFHO compared to Corn” value in data set [1] (200 nM dye and 10 μM RNA) is on record as above 2 fold. In addition, the “Fluorescence intensity with DFHO compared to Corn” value in data set [1] (10 μM RNA, 1 μM DFHO) is on record as “more than two-fold higher”. For the same molecule, the koff in data set [2] stood at 0.014 ± 0.008 s⁻¹.
